Laboratory results reported in patent publication US20210155689A1 (SHANGHAI PHARMAEXPLORER, published 2021).
Where a chain is given by its changes, count along the chain named.

T1: human LAG-3 on cells (HEK293-hLAG-3 stable cell line) (human, UniProt P18627 23-525)
T1 sequence: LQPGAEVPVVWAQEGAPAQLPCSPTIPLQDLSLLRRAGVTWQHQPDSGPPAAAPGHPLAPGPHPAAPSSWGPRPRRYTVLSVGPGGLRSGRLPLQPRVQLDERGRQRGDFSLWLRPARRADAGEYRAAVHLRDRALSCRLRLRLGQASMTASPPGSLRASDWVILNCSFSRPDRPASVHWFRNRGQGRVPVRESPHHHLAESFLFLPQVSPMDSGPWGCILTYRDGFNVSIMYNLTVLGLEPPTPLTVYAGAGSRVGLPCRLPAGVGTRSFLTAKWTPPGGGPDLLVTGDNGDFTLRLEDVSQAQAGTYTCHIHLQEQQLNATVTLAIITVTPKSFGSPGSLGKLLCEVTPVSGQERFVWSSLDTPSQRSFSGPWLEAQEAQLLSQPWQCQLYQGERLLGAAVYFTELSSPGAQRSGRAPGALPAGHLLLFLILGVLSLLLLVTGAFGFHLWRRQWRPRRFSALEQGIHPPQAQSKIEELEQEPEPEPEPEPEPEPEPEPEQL

T2: monkey LAG-3 on cells (HEK293-cLAG-3 stable cell line) (monkey, UniProt P18627 24-525 (human entry))
T2 construct: Full-length monkey (Chinese monkey) LAG-3 gene expressed on HEK293 cells
T2 chain: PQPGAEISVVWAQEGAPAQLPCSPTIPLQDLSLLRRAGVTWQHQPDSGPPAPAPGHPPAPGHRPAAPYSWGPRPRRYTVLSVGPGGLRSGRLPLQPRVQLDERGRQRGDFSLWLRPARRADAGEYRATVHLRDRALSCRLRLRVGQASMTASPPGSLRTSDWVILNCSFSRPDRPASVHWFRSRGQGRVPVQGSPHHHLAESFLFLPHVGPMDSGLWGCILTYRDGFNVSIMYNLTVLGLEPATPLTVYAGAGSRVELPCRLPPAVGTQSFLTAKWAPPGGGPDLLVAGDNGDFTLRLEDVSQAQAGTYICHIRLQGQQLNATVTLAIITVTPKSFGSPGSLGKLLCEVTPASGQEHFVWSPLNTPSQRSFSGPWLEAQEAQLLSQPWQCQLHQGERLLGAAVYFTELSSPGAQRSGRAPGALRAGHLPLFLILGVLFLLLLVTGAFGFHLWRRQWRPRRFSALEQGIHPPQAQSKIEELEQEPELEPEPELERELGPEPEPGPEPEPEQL

T3: mouse LAG-3 protein with hFc tag (mLAG-3-hFc protein) (mouse; human, UniProt Q61790 24-442)
T3 construct: Made in HEK293 cells; also called mouse LAG-3 extracellular domain protein; not shown: human IgG Fc fragment (hFc) of the pCpC vector
T3 sequence: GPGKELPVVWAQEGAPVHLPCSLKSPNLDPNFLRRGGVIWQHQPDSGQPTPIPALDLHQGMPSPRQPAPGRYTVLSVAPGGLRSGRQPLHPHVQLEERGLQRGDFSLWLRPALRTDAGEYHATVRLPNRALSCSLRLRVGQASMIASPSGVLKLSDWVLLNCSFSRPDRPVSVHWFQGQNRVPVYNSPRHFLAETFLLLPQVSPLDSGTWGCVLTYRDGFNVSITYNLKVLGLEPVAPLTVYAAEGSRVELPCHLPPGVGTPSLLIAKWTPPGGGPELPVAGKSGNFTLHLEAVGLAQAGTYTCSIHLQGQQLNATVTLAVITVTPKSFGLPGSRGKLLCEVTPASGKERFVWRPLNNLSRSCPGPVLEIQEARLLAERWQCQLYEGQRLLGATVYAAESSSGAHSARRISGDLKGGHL

B1: 556F6B8 mouse-human chimeric antibody (antibody, V domains shown)
VH: RVQLKQSGPGLVQPSQSLSITCTVSGFSLIKYGVHWVRQSPGEGLEWLGVIWRGGITDYNAAFMSRLSITKDNSKSQVFFKMNSLQADDTAIYYCAKWDGPLAMDYWGQGTSVTVSS
VL: DIVMTQSHKFLSTSVGDRVSITCKASQDVGTTVAWYQQKPGQSPKLLIYWASTRHTGVPDRFTGSGSGTDFTLTISNVQSEDLADYFCQQYSSYPYTFGGGTKLEIK
notes: also called mAb123-556F6B8; 556F8B8
B2: 556F6B8 (LAG-3 mouse-human chimeric antibody) (antibody, V domains shown)
VH: B1 VH
VL: B1 VL
notes: also called 556F8B8
B3: 105F1E10 mouse-human chimeric antibody (antibody, V domains shown)
VH: EVQLQQSGPELVKPGASVKMSCRASGYTFTDFKMHWMKQSHGKSLEWIGYIAPNNGGTAYNQKFRGKATLTVNESSNTAYMELRSLTSEDSAVYYCVDWDDVDYWGQGTTLTVSS
VL: DIKMTQSPSSMYASLGERVTITCKASQDINSYLSWFQQKSGKSPKTLIYRANRLVDGVPSRFSGSGSGQDYSLTISSLEYEDMGIYYCLQYVEFPLTFGAGTKLELK
notes: also called mAb009-105F1E10
B4: 105F1E10 (LAG-3 mouse-human chimeric antibody) (antibody, V domains shown)
VH: B3 VH
VL: B3 VL
B5: 405B8H3 (LAG-3 mouse-human chimeric antibody) (antibody, V domains shown)
VH: QVQLQQSGAELVRPGASVTLSCKASGYTFTDYEMHWVKQTPVHGLEWIGATDPETGNSAYNQKFKGKAIMTADKSSSTAYMELRSLTSEDSAVYYCISTGWNDWGQGTSLTVSS
VL: B3 VL with S40P, N52D, V55L, E81G, V92D, L96Y, A100G, L106I
notes: also called mouse-human chimeric antibody 405B8H3
B6: 405B8H3 mouse-human chimeric antibody (antibody, V domains shown)
VH: B5 VH
VL: B3 VL with S40P, N52D, V55L, E81G, V92D, L96Y, A100G, L106I
notes: also called mAb103-405B8H3
B7: 409B11E12 (LAG-3 mouse-human chimeric antibody) (antibody, V domains shown)
VH: B5 VH with P41T, G56S, N57Y, M70L, S98A
VL: B3 VL with I2L, S40P, V55L, V92D, L96Y, A100G, L106I
B8: 409B11E12 mouse-human chimeric antibody (antibody, V domains shown)
VH: B5 VH with P41T, G56S, N57Y, M70L, S98A
VL: B3 VL with I2L, S40P, V55L, V92D, L96Y, A100G, L106I
notes: also called mAb104-409B11E12
B9: 409D4E10 (LAG-3 mouse-human chimeric antibody) (antibody, V domains shown)
VH: B5 VH with Y27N, G56D, S58T, M70L, A72T, S98T, T99S
VL: B3 VL with S40P, V55L, V92N, L96Y, A100G, L106I

How the values were obtained:
[1] = target: T1, human LAG-3 on cells (HEK293-hLAG-3 …); experiment: cell-based or functional assay
[2] = target: T2, monkey LAG-3 on cells (HEK293-cLAG-3 …); experiment: FACS, HEK293-cLAG-3, antibody 0.013 nM
Description: (§1) The pIRES plasmid with the monkey-derived full-length gene was transfected into the HEK293 cell line to construct a HEK293 stable cell line containing monkey LAG-3 (herein referred to as HEK293-cLAG-3 stable cell line). The HEK293-hLAG-3 stable cell line and HEK293-cLAG-3 stable cell line were expanded in a T-75 cell culture flask to a 90% confluence. The medium was aspirated, and the cells were washed with HBSS (Hanks' Balanced Salt Solution) 1-2 times, then treated with a enzyme-free cell dissociation fluid (Versene solution: Life technology) and the cells were collected. The cells were washed with HBSS buffer for 1-2 times. After counted, the cells were diluted with HBSS to 1-2×10⁶ cells per ml, added with 1% goat serum blocking solution, incubated on ice for 20-30 minutes, and then washed with HBSS for 2 times by centrifugation. The collected cells were suspended in the FACS buffer (HBSS+1% BSA) to 2×10⁶ cells/ml, added as 100 microliters per well to a 96-well FACS reaction plate, added with 100 microliters per well of the antibody sample to be tested, incubated on ice for 1-2 hours. The plate was washed twice with the FACS buffer by centrifugation, added with 100 microliters of fluorescent (Alexa 488)-labeled secondary antibodies per well, and incubated on ice for 0.5-1.0 hours. The plate was washed 2-3 times with FACS buffer by centrifugation, added with 100 μl fixative solution (4% Paraformaldehyde) per well to suspend the cells. 5-10 minutes later, it was washed 1-2 times with FACS buffer by centrifugation. The cells were suspended with 100 microliters of FACS buffer, FACS (FACSCalibur, BD) was used for detection and the results were analyzed.

[3] = target: T2, monkey LAG-3 on cells (HEK293-cLAG-3 …); experiment: FACS, HEK293-cLAG-3, antibody 8.000 nM
Description: as §1

[4] = target: T3, mouse LAG-3 protein with hFc tag …; experiment: ELISA, mLAG-3-hFc coated; 0.0000 nM
Experimental: The plate was sealed with plastic film and incubated overnight at 4° C. The plate was washed 2 times with the plate washing solution (PBS+0.01% Tween20) on the next day, and added with the blocking solution (PBS+0.01% Tween20+1% BSA) and blocked at room temperature for 1-2 hours. The blocking solution was poured out, and the plate was added with 50-100 μl of the antibody sample to be tested to each well, incubated at 37° C. for 1-2 hours, and washed 2-3 times with a plate washing solution (PBS+0.01% Tween20). HRP (horseradish peroxidase) labeled secondary antibody was added, and the plate was incubated at 37° C. for 1-2 hours, and washed 2-3 times with a plate washing solution (PBS+0.01% Tween20). 100 μl of TMB substrate was added to each well. After incubated at room temperature for 15-30 minutes, the plate was added with 100 μl of stop solution (1.0N HCl) to each well.

Row | Binder | IL-2 production, antigen-specific T lymphocyte stimulation test, 0.016 ug/ml, N = 1 [1] [pg/mL] | IL-2 production, antigen-specific T lymphocyte stimulation test, 0.016 ug/ml, N = 2 [1] [pg/mL] | IL-2 production, antigen-specific T lymphocyte stimulation test, 0.08 ug/ml, N = 1 [1] [pg/mL] | IL-2 production, antigen-specific T lymphocyte stimulation test, 0.08 ug/ml, N = 2 [1] [pg/mL] | IL-2 production, antigen-specific T lymphocyte stimulation test, 0.4 ug/ml, N = 1 [1] [pg/mL] | IL-2 production, antigen-specific T lymphocyte stimulation test, 0.4 ug/ml, N = 2 [1] [pg/mL] | IL-2 production, antigen-specific T lymphocyte stimulation test, 2 ug/ml, N = 1 [1] [pg/mL] | IL-2 production, antigen-specific T lymphocyte stimulation test, 2 ug/ml, N = 2 [1] [pg/mL] | IL-2 production, antigen-specific T lymphocyte stimulation test, 10 ug/ml, N = 1 [1] [pg/mL] | IL-2 production, antigen-specific T lymphocyte stimulation test, 10 ug/ml, N = 2 [1] [pg/mL] | Mean fluorescence intensity [2] | Mean fluorescence intensity [3] | OD450 [4] [OD450]
1 | B1 | 348 | 353 | 499 | 491 | 794 | 599 | 818 | 866 | 584 | 722 | 3.46 | 42.5 | 
2 | B2 |  |  |  |  |  |  |  |  |  |  |  |  | 0.09
3 | B3 | 452 | 420 | 437 | 467 | 779 | 757 | 853 | 792 | 850 | 627 | 2.89 | 37.9 | 
4 | B4 |  |  |  |  |  |  |  |  |  |  |  |  | 0.08
5 | B5 |  |  |  |  |  |  |  |  |  |  |  |  | 0.1
6 | B6 | 366 | 420 | 666 | 559 | 883 | 986 | 876 | 825 | 770 | 789 | 3.52 | 69.3 | 
7 | B7 |  |  |  |  |  |  |  |  |  |  |  |  | 0.08
8 | B8 | 402 | 433 | 525 | 555 | 835 | 954 | 914 | 915 | 671 | 795 | 3.39 | 73.1 | 
9 | B9 |  |  |  |  |  |  |  |  |  |  |  |  | 0.09
